Reference: the DeepSol protein solubility set

Experiment: soluble on expression in E. coli; label from the status in PepcDB or PDB records

Sequence | soluble on expression in E. coli
NANDNVVIVGTGLAGVEVAFGLRASGWEGNIRLVGDATVIPHHLPPLSKAYLAGKATAESLYLRTPDAYAAQNIQLLGGTQVTAINRDRQQVILSDGRALDYDRLVLATGGRPRPLPVASGAVGKANNFRYLRTLEDAECIRRQLIADNRLVVIGGGYIGLEVAATAIKANMHVTLLDTAARVLERVTAPPVSAFYEHLHREAGVDIRTGTQVCGFEMSTDQQKVTAVLCEDGTRLPADLVIAGIGLIPNCELASAAGLQVDNGIVINEHMQTSDPLIMAVGDCARFHSQLYDRWVRIESVPNALEQARKIAAILCGKVPRDEAAPWFWSDQYEIGLKMVGLSEGYDRIIVRGSLAQPDFSVFYLQGDRVLAVDTVNRPVEFNQSKQIITDRLPVEPNLLGDESVPLKEIIAAAKAELSSAKAELSSAPRHHHHHH | soluble
MTLTRGSFTYSSGEEYTGEWKEGRRHGKGELKFADGTCYKGHFENGLFHGSGVLVFPDGSRYEGEFAQGKFQGVGIFSRFDGMKFEGEFKSGRVEGHGLLTFPDGSHGAPRNEGMFENNKLLKREKCQAVVQRAKNSASTARGLSV | soluble
AACKFLRRKCTSDCVFAPYFPPEEPTKFANVHRIFGASNVSKILHEVAPHQREDAVNSLAYEAEARLKDPVYGCVGAISVLQRQVLRLQRELEETNADLMRYAGCLGGETTSAYGGRRG | not soluble
THQMNQFYTTGAGRDIFATDEAKQVSAHLANEVDQLAQSLLKKEVYDKTKLFVADFVRQYPFADLSMIRTPAYRAWLEANQISEEDAVTTLGTMPEALGDVSDRLSLVSEQTPKIMTWKAQLLALNSSASIEKVNAALNSLQVTADSMRDFIDNNPEYMRYLAEQMAVELQPLVDDIDQKTEARLSQLGEERQALEEMVARERQEIALIITHEREKFAQDMDRVSQEVVNLAMTKLIELVKST | not soluble
MGSDKIHHHHHHMNPSPLPYFLGCPSWSENAWRDYLYPADANSNQMLGFYSQVFNAVEGNTTFYARPAPGTIARWAQLMPEHFRFTAKFPRDVSHEGDLRDQLEPAFDFTRLMAPLGRRVSPYWLQLPAQFGPARLGELCHFLDQIAVPVAVEVRNQAFFAKGEEERLLNRLLHERGVERICLDPRALFSCTSRDPAVLHAQSKKPKVPPRPAAFSQHPQVRFIGHPELEANHTFLSPWVEKVAAWIEEGRNPYIFLHTSDNRLAAALAQRFHQRLMARLPGLAPLPELPRAPEVEQLGLL | not soluble
MGSDKIHHHHHHMSLSAQKCGRFFVSIQTEFEQERPTHKGGEIGIDMGVTRFATLSNGEFFEPLNAFKTYKGKLAKLQKQLKNKVKFSKNWQKLKEKIGKLHHKIANCRKDFLHKISTQISKNHAMIYVEDLQVANMSKSAKGTVEAHGKNVKQKSGLNRAILDQSWFEFRRQLDYKTQWLGGFLVAVPPRDTSRTCPCCGHIAKENRETQAHFECVECGYRENADVVGGINVLARGLAIVQA | not soluble
MYSISFQEDSLLPRERLAKEGVEALSNQELLAILLRTGTRQASVFEIAQKVLNNLSSLTDLKKMTLQELQSLSGIGRVKAIELQAMIELGHRIHKHETLEMESILSSQKLAKKMQQELGDKKQEHLVALYLNTQNQIIHQQTIFIGSVTRSIAEPREILHYAIKHMATSLILVHNHPSGAVAPSQNDDHVTKLVKEACELMGIVLLDHLIVSHSNYFSYREKTDLI | not soluble
MAAKLEKTTNSFEVITREWYAKFSPTWNESHGERIIRRFERDIFPWIGSKPISEIAAPELLATVRRIESRGAVETAHRALGNCGQVFRYAIATARATRDISADLRGALPPVKGEHLEHHHHHH | soluble
MGSDKIHHHHHHMEVLSGECRSASSVASAGGGHAESWARYASMDRKGESSMAAQQPTILATSGGYKAGRRSRLEFDALLHHAVELSGVTGRAPRVTHIGTAAGDQRSFNAELDQAAKIAGFDFSHLNLFTMPSIDDPEAHLLEQDVVWVNGGSVVNLLAVWRAHGLDGILRRVWEAGVVLAGVSAGSICWFQGGTTDSYGPQLRPVTNALGFLPYANGVHYDSEVQRRPLVHRLVADGTLGETHCTDDGAGLVYFGTHLAEAVTEVRGKAAYRVTRHIQGGGAATAAEERLEARFLG | not soluble
MLYASYMSYVSIKMHASSNGAHISGAETLVDESRAYEFLSSFYQRANTHSKGKPEITTLTIRRIKDADIITIPALEVKCLPALHPSEAHRQVIEQLSNVVSPTIAQMALHTVLNARNMRGAILLCAHTGQRLDPYDPQRGVRASTFGVTPQESAGPTLNKSHFNEALVLASKVMSAPGIVAEICISDDPAYTTGYVTTENTYIRIPHMKDPYSPIGGRVFLLDTRVSTPEDTISYLEQKPVLITGVN | not soluble
MGSDKIHHHHHHMKEIVEQNIFNEDLSQLLYSFIDSKETFSFAESSILHYVVFGGENLDVATRLGAGIEILILSSDIMDDLEDEDNHHALWMKINRSESLNAALSLYTVGLTSIYSLNNNPLIFKYVLKYVNEAMQGQHDDITNKSKTEDESLEVIRLKCGSLIALANVAGVLLATGEYNETVERYSYYKGIIAQISGDYYVLLSGNRSDIEKNKHTLIYLYLKRLFNDASEDLLYLISHKDLYYKSLLDKEKFQEKLIKAGVTQYISVLLEIYKQKCISAIEQLNLDKEKKELIKECLLSYTKGDTRCKT | not soluble
MSLKNLQCELDWERRFDGMQQHLGQHLLSGCFYDLFGANTCGFHLGKEISTVDIVGFLDEKTIREAEKEANRLIFENLEVKSYAPSKKELKKVKTRRALPKTDEEIRIVEIVGLDLNACCGVHPRNTRDLQVIKIRRWEKHKNATRIEYVAGNRAVSEGHHHHHH | not soluble
QDPDGLLGDKKDVGITCALIPADHDGVEIGERHDPLGSAFMNGPTRGEDVFIPMDWLIGGSDYAGKGWRMLVECLSAGRGISLPALGTAIGHLTTRTTGAYAYVRKQFGMSIGKFEGVAEAMGRIGGLTYLLEATRTLTTTSLDMKEKPGIVTAIAKYHMTEIARTILNDSFDIHAGRAIQDGPMNYLAKHYLGIPVAITVEGANILTRNLMIFGQGATRCHPYVLKEMEAAANPDSEQGAKEFDSLLFKH | not soluble
MSTNFEKHFQENVDECTLEQLRDILVNKSGKTVLANRFRALFNLKTVAEEFATKPEEAKKAIEYIAESFVNDKSELLKHEVAYVLGQTKNLDAAPTLRHVMLDQNQEPMVRHEAAEALGALGDKDSLDDLNKAAKEDPHVAVRETCELAINRINWTHGGAKDKENLQQSLYSSIDPAPPLPLEKDATIPELQALLNDPKQPLFQRYRAMFRLRDIGTDEAILALATGFSAESSLFKHEIAYVFGQIGSPAAVPSLIEVLGRKEEAPMVRHEAAEALGAIASPEVVDVLKSYLNDEVDVVRESCIVALDMYDYENSNELEYAPTAN | soluble
MAAPKLGFFEKIANLTGALYRHQHAQFPRRFAILKAVGKHELAPPRQADWPAIKADWAKVQSFIQTGGYKNLSIREGLVYTAVTLEVVFWFFVGEMIGRRYIFGYLVPADYVSKSTKKTVKEQEALAALEN | not soluble
MLILSEQEIQRLYTMEEAISDVKEILRQKQAGNVNTPERTVLSFPHYDASILYMPSVKTGAAAVKVVSIFPHNPPLGKPTTQGVIILTDTKTEEHRMLCNATYLTRLRTGALSAIAADYLAKREASRLAVIGTGAMAREQVAGMLEVRGIEHIFLYNRTRSKAERFALEGW | not soluble
MKRLLLTLTFPLFFVGCASQNPTHMAFSPQVPDISQQTSRPVQISLDTIDSRNAEYVARFMEEGTKTRLVGPSEPPKLLLDEVFRNGFTQAGYQIDPSATNSIQVQLEELQMDVTKKTFGYEAKHSVRIAVQARNSSQELVKRYKAKGVLKGPLTPDFATLEMDMNKLLGQLTGEILNDPELNQFLQK | soluble
RRSPPADAIPKSKKVKVSHRSHSTEPGLVLTLGQGDVGQLGLGENVMERKKPALVSIPEDVVQAEAGGMHTVCLSKSGQVYSFGCNDEGALGRDTSVEGSEMVPGKVELQEKVVQVSAGDSHTAALTDDGRVFLWGSFRDNNGVIGLLEPMKKSMVPVQVQLDVPVVKVASGNDHLVMLTADGDLYTLGCGEQGQLGRVPELFANRGGRQGLERLLVPKCVMLKSRGSRGHVRFQDAFCGAYFTFAISHEGHVYGFGLSNYHQLGTPGTESCFIPQNLTSFKNSTKSWVGFSGGQHHTVCMDSEGKAYSLGRAEYGRLGLGEGAEEKSIPTLISRLPAVSSVACGASVGYAVTKDGRVFAWGMGTNYQLGTGQDEDAWSPVEMMGKQLENRVVLSVSSGGQHTVLLVKDKEQS | soluble
MSAFQAFVVNKTETEFTAGVQTISMDDLPEGDVLVRVHYSSVNYKDGLASIPDGKIVKTYPFVPGIDLAGVVVSSQHPRFREGDEVIATGYEIGVTHFGGYSEYARLHGEWLVPLPKGLTLKEAMAIGTAGFTAALSIHRLEEHGLTPERGPVLVTGATGGVGSLAVSMLAKRGYTVEASTGKAAEHDYLRVLGAKEVLAREDVMAERIRPLDKQRWAAAVDPVGGRTLATVLSRMRYGGAVAVSGLTGGAEVPTTVHPFILRGVSLLGIDSVYCPMDLRLRIWERLAGDLKPDLERIAQEISLAELPQALKRILRGELRGRTVVRLA | soluble
MKITREELAVQVDVAQWSWLRAHLERGGLIVVNRGLDLVEVGVSIASDDTAVVGDWIQTGLLAKPSAEQISAWDANEEISFSALIISPYVLIQEQKQ | not soluble
MSLKFIEKMLPEESPIDLLINLSRRGEAAVVLLKDAIEDYFTGKFGEGHLNRVISLERESDEIKSKLKKMYLKMKYTYFEKDDFLYIVHKADEILDVVRDIVIMLDMNRVEDVPENIKELFAELVENVLDTIRETTEAIEQLRTLAESGFSPFEKEKEEREIFDVSMEEREVDTISRNLGKKLYSLKNSMNPVDLIFLNKVARLISKIADQGKDITKRINSILREGHHHHHH | soluble
AIELVPEHQTVPVSIGVPATLRCSMKGEAIGNYYINWYRKTQGNTMTFIYREKDIYGPGFKDNFQGDIDIAKNLAVLKILAPSERDEGSYYCACDTLGMGGEYTDKLIFGKGTRVTVEPRSQPHTKPSVFVMKNGTNVACLVKEFYPKDIRINLVSSKKITEFDPAIVISPSGKYNAVKLGKYEDSNSVTCSVQHDNKTVHSTDFEVKTDSTDHVKPKETENTKQPSKS | soluble
MGSDKIHHHHHHMDKKSSVSPLPTKALSDDKNSPITVWHIGGEDIRLRIPLLLKLREKGFNVGAVGSEDGNAFADNQIPYFRYTLERGINPWADIYTRSQLSALFRQHQPDIVHSFDTKPAMIAPIVAMKTGIPGRVRTITGMGYVFSSTSTLALALRPIYRHLQRQAAIATGITIFQNPDDREYFCKHKMVLDGRDDLVLGSGIDVEGLMKNSAEPEKLAATRRELGLEGQLVVTMISRLVISKGVREYLQVASIVCQQMKNVTFLLIGSVSSEGGQAIPIQEIHQQAGVVRYLGPRNDIPTLLNLSDVFVLPSYYREGVPRVLLEAATMELPLITTDMPGCKEVVKDGWNGLLVPPRDTKALATAILKLLNSPEQRNLMGKRSRVHVQTNFSLNQVADAYADIYNRVLKLPKTLK | not soluble
